Experimental data as given in the DeepSol protein solubility set.

Test: soluble on expression in E. coli; label from the status in PepcDB or PDB records
For “MGHHHHHHSHIHRIDSTEVIYQPRRKRAKLIGKYLMGDLLGEGSYGKVKEVLDSETLCRRAVKILKKKKLRRIPNGEANVKKEIQLLRRLRHKNVIQLVDVLYNEEKQKMYMVMEYCVCGMQEMLDSVPEKRFPVCQAHGYFCQLIDGLEYLHSQGIVHKDIKPGNLLLTTGGTLKISDLGVAEALHPFAADDTC”, the “soluble on expression in E. coli” value was “not soluble”.
For “MGHHHHHHSHMADIPSFQGTTLTRDTVRQLVSDIFIYKMPFNIELGLELQQFEADKAVLTFARQDKLIGNAAQKILHGGVIAAGLDVAAGLVCVGNTLLRHETISDQEFHHRLARMGTIDMRVDYLRPGYGERFTITSTLLRGGNKIAVARAELHNEQGSHLASATATYIVG”, the “soluble on expression in E. coli” value was “soluble”.
With “MGHHHHHHSHMAIPITVLDCDLLLYGRGHRTLDRFKLDDVTDEYLMSMYGFPRQFIYYLVELLGANLSRPTQRSRAISPETQVLAALGFYTSGSFQTRMGDAIGISQASMSRCVANVTEALVERASQFIRFPADEASIQALKDEFYGLAGMPGVMGVVDCIHVAIKAPNAEDLSYVNRKGLHSLNCLMVCDIRGTLMTVETNWPGSLQDCAVLQQSSLSSQFEAGMHKDSWLLGDSSFFLRTWLMTPLHIPETPAEYRYNMAHSATHSVIEKTFRTLCSRFRCLDGSKGALQYSPEKSSHIILACCVLHNISLEHGMDVWSSPMTGPMEQPPEEEYEHMESLDLEADRIRQELMLTHFS” the “soluble on expression in E. coli” value was “not soluble”.
For “MGHHHHHHSHMANSAGSMANSAGSKEFAYQNKVEELTSYAVQIANEFQSGQVDMRRLYPYQDILSTRKTQFIIFNEEQQPYFLPEGFHHPPREQLKKSEWNKLKKGQTVTIRADGRFDDEVSLVAQPIFVQNEFKGAVLLISPISGVEQMVNQ”, the “soluble on expression in E. coli” value was “not soluble”.
In the case of “MGHHHHHHSHMAQLMEVLSVTPTQSPENNDLISYNSVWVACQQMPQIPRDNKAAALLMLTKNVDFVKDAHEEMEQAVEECDPYSGLLNDTEENNSDNHNHEDDVLGFPSNQDLYWSEDDQELIIPCLALVRASKACLKKIRMLVAENGKKDQVAQLDDIVDISDEISPSVDDLALSIYPPMCHLTVRINSAKLVSVLKKALEITKASHVTPQPEDSWIPLLINAIDHCMNRIKELTQSELEL”, the “soluble on expression in E. coli” value is reported as “not soluble”.
With “MGHHHHHHSHMASLAVSNWPKPMPLIPCLSWSTASGVFTTGVLSKPINWRELEKQYYTQTVYEEEIIHMLEYCGTDSFKMGQEFVKHFTSSADKLTNLNLVSRTLNLDISNQVVSQKPADCHNSSKTSVSATSEGLLLQDTSKMKRFNQTLSTNKSGYTSRNPQSYHLLSKEQSRNSLRKESLIFMKGVMDECTHVANFSVPVDPSLIIVVQAKEDAYIPRTGVRSLQEIWPGCEIRYLEGGHISAYLFKQGLFR” the “soluble on expression in E. coli” value was “soluble”.
With “MGHHHHHHSHMDNAEAQFTTALRLTNHQELWAFIVTNLASVYIREGNRHQEVLYSLLERINPDHSFPVSSHCLRAAAFYVRGLFSFFQGRYNEAKRFLRETLKMSNAEDLNRLTACSLVLLGHIFYVLGNHRESNNMVVPAMQLASKIPDMSVQLWSSALLRDLNKACGNAMDAHEAAQMHQNFSQQLLQDHIEACSLPEHNLITWTDGPPPVQFQAQNGPNTSLASLL” the “soluble on expression in E. coli” value was “not soluble”.
With “MGHHHHHHSHMEEERRDDYKFLRIQDAFKALHLHVNLIGVIVELGFSNGSDCSCTLKIVDPWYSGSGLPVKFVARTIRDLPRVESIGDIILLSRVKIVLINRKITALCNETTSSSFALFNGKHSVDSIPYQSSPKFLMREQDKNFLSNLREWMITYKFEDGS” the “soluble on expression in E. coli” value was “not soluble”.
In the case of “MGHHHHHHSHMEKRKPTIQNIEVSDHTAELSLRVDADILDFQGHFSHFPLLPGVTQIDWALFYAVQYLNTPKVFKGMEVIKFQEPILPNADVCLSLSWDNEREKLTFKYTSKNGETLVTHSSGKMKLGESRE”, the “soluble on expression in E. coli” value is reported as “soluble”.
For “MGHHHHHHSHMGSELIGRLAPRLGLAEPDMLRKAEEYLRLSRVKCVGLSARTTETSSAVMCLDLAASWMKCPLDRAYLIKLSGLNKETYQSCLKSFECLLGLNSNIGIRDLAVQFSCIEAVNMASKILKSYESSLPQTQQVDLDLSRPLFTSAALLSACKILKLKVDKNKMVATSGVKKAIFDRLCKQLEKIGQQVDREPGDVATPPRKRKKIVVEAPAKEMEKVEEMPHKPQKDEDLTQDYEEWKRKILENAASAQKATAE”, the “soluble on expression in E. coli” value was “not soluble”.
In the case of “MGHHHHHHSHMGYKLQDLTDVQIMARLQEESLRQDYASTSASVSRHSSSVSLSSGKKGTCSDQEYDQYSLEDEEEFDHLPPPQPRLPRCSPFQRGIPHSQTFSSIRECRRSPSSQYFPSNNYQQQQYYSPQAQTPDQQPNRTNGDKLRRSMPNLARMPSTTAISSNISSPVTVRNSQSFDSSLHGAGNGISRIQSCIPSPGQLQHRVHSVGHFPVSIRQPLKATAYVSPTVQGSSNMPLSNGLQLYSNTGIPTPNKAAASGIMGRSALPRPSLAINGSNLPRSKIAQPVRSFLQPPKPLSSLSTLRDGNWRDGCY”, the “soluble on expression in E. coli” value is reported as “not soluble”.
For “MGHHHHHHSHMHGSPVEVKIQSRSSPPTMPPLPPINPGGPRPVSFTPTALSNGINHSPPTLNGAPSPPQRFSNGPASSTSSALTNQQLPATCGARQLSKLKRFLTTLQQFGNDISPEIGEKVRTLVLALVNSTVTIEEFHCKLQEATNFPLRPFVIPFLKANLPLLQRELLHCARAAKQTPSQYLAQHEHLLLNTSIASPADSSELLMEVHGNGKRPSPESCIIHLKSMGVASRHEYFSGTLQMPAHPVRNSTLENLWVDCSRSLRSTVLPFP”, the “soluble on expression in E. coli” value was “not soluble”.
For “MGHHHHHHSHMHPDCGFLLNKDVGNIAKYDIRVKNLKSRLRGGKMRYQEEEARLASFRNWPFYVQGISPCVLSEAGFVFTGKQDTVQCFSCGGCLGNWEEGDDPWKEHAKWFPKCEFLRSKKSSEEITQYIQSYKGFVDITGEH”, the “soluble on expression in E. coli” value was “soluble”.
For “MGHHHHHHSHMITREEIANVLDQPVYDGDGNKIGDAKHVFFDDMTGRPEWVSVKTGMFGSTESFVPIRDAALVQDHLEVPYGKDQVKGAPSVDVDAGGHLSETEEHRLYDYYGINWDSVLSEAERTDDDRFAAGPGTAGAAGTAGAAGLAGTAGAAGAAGTAGGRTGREDAMRREGMRGDEGAMRREGMRGDEAMTRSEEQMHIGVERHESGRARLRKYVVTEEVQQTVPVTHEEVRVVREPITDANRDEALAGPEISEAEHEVTLHAERPVVETETVPVERVRMTTEELTENETVRGQVRKERIEAETESFTEGETKNARDDKRRGGK”, the “soluble on expression in E. coli” value was “soluble”.
In the case of “MGHHHHHHSHMKIELSMQPWNPGYSSEGATAQETYTCPKMIEMEQAEAQLAELDLLASMFPGENELIVNDQLAVAELKDCIEKKTMEGRSSKVYFTINMNLDVSDEKMAMFSLACILPFKYPAVLPEITVRSVLLSRSQQTQLNTDLTAFLQKHCHGDVCILNATEWVREHASGYVSRDTSSSPTTGSTVQSVDLIFTRLWIYSHHIYNKCKRKNILEWAKELSLSGFSMPGKPGVVCVEGPQSACEEFWSRLRKLNWKRILIRHREDIPFDGTNDETERQRKFSIFEEKVFSVNGARGNHMDFGQLYQFLNTKGCGDVFQMFFGVEGQ”, the “soluble on expression in E. coli” value is reported as “not soluble”.
For “MGHHHHHHSHMKRMAENELSRSVNEFLSKLQDDLKEAMNTMMCSRCQGKHRRFEMDREPKSARYCAECNRLHPAEEGDFWAESSMLGLKITYFALMDGKVYDITEWAGCQRVGISPDTHRVPYHISFGSRIPGTRGRQRATPDAPPADLQDFLSRIFQVPPGQMPMGTSLQLLSLPLEPLQPLSPTAQYPREKPNLSGGRK”, the “soluble on expression in E. coli” value was “not soluble”.
In the case of “MGHHHHHHSHMKWASENGASVEGFEMVNFKEEGFGLRATRDIKAEELFLWVPRKLLMTVESAKNSVLGPLYSQDRILQAMGNIALAFHLLCERASPNSFWQPYIQTLPSEYDTPLYFEEDEVRYLQSTQAIHDVFSQYKNTARQYAYFYKVIQTHPHANKLPLKDSFTYEDYRWAVSSVMTRQNQIPTEDGSRVTLALIPLWDMCNHTNGLTPEDSFALAVASA”, the “soluble on expression in E. coli” value is reported as “not soluble”.
For “MGHHHHHHSHMLACCAIYSPVRCAFPYTETERRFTCKRRIFRIILTLCGRENMKIRALLVAMSVATVLTGCQNMDSNGLLSSGAEAFQAYSLSDAQVKTLSDQACQEMDSKATIAPANSEYAKRLTTIANALGNNINGQPVNYKVYMAKDVNAFAMANGCIRVYSGLMDMMTDNEVEAVIGHEMGHVALGHVKKGMQVALGTNAVRVAAASAGGIVGSLSQSQLGNLGEKLVNSQFSQRQEAEADDYSYDLLRQRGISPAGLATSFEKLAKLEEGRQSSMFDDHPASAERAQHIRDRMSADGIK”, the “soluble on expression in E. coli” value was “not soluble”.
With “MGHHHHHHSHMLFEEAFVHLKPQVCLPLWISWAEWSEGAKSQEDTEAVFKKALLAVIGADSVTLKNKYLDWAYRSGGYKKARAVFKSLQESRPFSVDFFRKMIQFEKEQESCNMANIREYYERALREFGSADSDLWMDYMKEELNHPLGRPENCGQIYWRAMKMLQGESAEAFVAKHAMHQTGHL” the “soluble on expression in E. coli” value was “not soluble”.
With “MGHHHHHHSHMLINARISVRSYPKYQRFSFFYALLFKRIDLILAQSKEDKKRLLNLGAKKVVDFLNIKRFSKPVITSFYPKNPSALNIVLASTHEGEEELGLKAFLELKKTFKNARLIVVPRHPERFKSVQDLLQNTLKTTPFSWECFSSKGFVECDILLVDSLGELNNFYQIADIVILGGSFVKMGGHNPLEPAFFNARLITGEYIFNQVALFELVKPYKIVPKEDLLDALLDYKNLGMARFLENGHDLNELLAFIKH” the “soluble on expression in E. coli” value was “not soluble”.
For “MGHHHHHHSHMNGRADFREPNAEVPRPIPHIGPDYIPTEEERRVFAECNDESFWFRSVPLAATSMLITQGLISKGILSSHPKYGSIPKLILACIMGYFAGKLSYVKTCQEKFKKLENSPLGEALRSGQARRSSPPGHYYQKSKYDSSVSGQSSFVTSPAADNIEMLPHYEPIPFSSSMNESAPTGITDHIVQGRNFS”, the “soluble on expression in E. coli” value was “soluble”.
With “MGHHHHHHSHMNVVKASPQSALLLYISELIQEKNPMNAMNVVKPSARKYASYNMRDVIQERLPLYVPSAENPIHTNMASLPIREFTQERNLMSAMNVERPSPQSQYSMYIKERIQERGRMDAVIVRKPSPTYQTLSNIRKCTQEKWVESVKLKTPVMESHSSFLISELMQKKTLLVP” the “soluble on expression in E. coli” value was “not soluble”.
For “MGHHHHHHSHMPGRSSSNSGSTGFISFSGVESALSSLKNFQACINSGMDTASSVALDLVESQTEVSSEYSMDKAMVEFATLDRQLNHYVKAVQSTINHVKEERPEKIPDLKLLVEKKLLALQSKNSDADFQNNEKFVQFKQQLKELKKQCGLQADREADGTEGVDEDIIVTQSQTNFTCPITKEEMKKPVKNKVCGHTYEEDAIVRMIESRQKRKKKAYCPQIGCSHTDIRKSDLIQDEALRRAIENHNKKRHRHSE”, the “soluble on expression in E. coli” value was “not soluble”.
For “MGHHHHHHSHMPPAAAGPLAGQPRKSSSSRRNAWGNLSYADLITKAIESSAEKRLTLSQIYEWMVKSVPYFKDKGDSNSSAGWKNSIRHNLSLHSKFIRVQNEGTGKSSWWMLNPEGGKSGKSPRRRAASMDNNSKFAKSRSRAAKKKA”, the “soluble on expression in E. coli” value was “soluble”.
With “MGHHHHHHSHMQGLLRFEDQDSARGDQNIAMFYPTSTQMVYRRGLQAIPLSGDLWIHYINFLKETLDPGDPETNNTIRGTFEHAVLAAGTDFRSDRLWEMYIDWENEQGNLREVTAIYDRILGIPTQLCSHHFQRFKEHVQNNLPRDLLTGEQFIQLRRELASVNGHSGDDGPPGDDLPSGIEDITDPAKLITEIENMRHRIIEIHQEMFNYNEHEVSKRWTFEEGIKRPYFHVKPLEKAQLKKLERILRI” the “soluble on expression in E. coli” value was “soluble”.
For “MGHHHHHHSHMSEDNRPLTGLAAAIAGAKLRKVSRMEDTSFPSGGNAIGVNSASSKTDTGRGNGPLPLGGSGLMEEMSALLARRRRIAEKGSTIETEQKEDKGEDSEPVTSKASSTSTPEPTRKPWERTNTMNGSKSPVISRPKSTPLSQPSANGVQTEGLDYDRLKQDILDEMRKELTKLKEELIDAIRQELSKSNTA”, the “soluble on expression in E. coli” value was “not soluble”.
In the case of “MGHHHHHHSHMSHTQQQTASSTETSTVTVPPSREQNLVLHLSPNPAQPSTSERRHVVWATETVDNEGMGKKKSKCCCIYKKPKNWQDSSSDSDSDCETGHCRGHVEHKKNEEPKSSN”, the “soluble on expression in E. coli” value is reported as “soluble”.
